Results reported in doi:10.1101/151043 (bioRxiv, 2017).

Assays:
[1] = biological target: recombinant human serum albumin from S. cerevisiae, biotin labelled (Homo sapiens, UniProt P02768, EZ-Link NHS-PEG4-Biotin labelled); test: SPR
[2] = biological target: mouse serum albumin (Mus musculus, UniProt P07724, EZ-Link NHS-PEG4-Biotin labelled); test: SPR
Sequence of mouse serum albumin (P07724 25-608): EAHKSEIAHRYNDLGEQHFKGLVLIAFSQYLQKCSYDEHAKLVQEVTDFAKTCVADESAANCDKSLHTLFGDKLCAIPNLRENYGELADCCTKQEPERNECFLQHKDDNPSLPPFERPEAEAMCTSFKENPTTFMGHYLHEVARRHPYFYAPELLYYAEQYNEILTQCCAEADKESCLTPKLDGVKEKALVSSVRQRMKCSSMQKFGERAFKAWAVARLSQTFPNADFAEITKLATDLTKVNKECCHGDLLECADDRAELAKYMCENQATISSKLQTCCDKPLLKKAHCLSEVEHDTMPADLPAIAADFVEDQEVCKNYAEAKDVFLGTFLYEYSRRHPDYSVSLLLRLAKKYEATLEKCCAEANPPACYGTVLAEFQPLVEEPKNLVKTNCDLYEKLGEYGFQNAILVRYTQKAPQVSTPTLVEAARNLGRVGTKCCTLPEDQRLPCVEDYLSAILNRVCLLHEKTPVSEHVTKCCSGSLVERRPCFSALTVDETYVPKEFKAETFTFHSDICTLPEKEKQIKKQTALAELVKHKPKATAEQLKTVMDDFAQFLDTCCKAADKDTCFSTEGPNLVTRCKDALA

Sequence of recombinant human serum albumin from S. cerevisiae, biotin labelled (P02768 25-609): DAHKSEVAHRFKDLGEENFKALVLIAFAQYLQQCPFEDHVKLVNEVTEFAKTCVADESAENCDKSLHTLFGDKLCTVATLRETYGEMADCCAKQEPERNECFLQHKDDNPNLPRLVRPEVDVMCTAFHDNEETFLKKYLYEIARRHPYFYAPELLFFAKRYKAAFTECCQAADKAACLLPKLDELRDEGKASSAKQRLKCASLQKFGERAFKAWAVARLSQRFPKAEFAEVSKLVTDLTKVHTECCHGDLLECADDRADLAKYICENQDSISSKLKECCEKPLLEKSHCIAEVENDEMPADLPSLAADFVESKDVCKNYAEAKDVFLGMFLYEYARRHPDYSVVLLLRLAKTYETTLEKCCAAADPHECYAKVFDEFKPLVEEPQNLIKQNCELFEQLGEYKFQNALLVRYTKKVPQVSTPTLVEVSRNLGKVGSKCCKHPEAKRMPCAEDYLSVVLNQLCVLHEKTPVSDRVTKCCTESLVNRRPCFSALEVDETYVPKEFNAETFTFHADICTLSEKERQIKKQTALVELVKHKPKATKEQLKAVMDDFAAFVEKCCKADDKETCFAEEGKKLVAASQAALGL

B1: Nb.b201 (VHH)
VHH: QVQLQESGGGLVQAGGSLRLSCAASGYISDAYYMGWYRQAPGKEREFVATITHGTNTYYADSVKGRFTISRDNAKNTVYLQMNSLKPEDTAVYYCAVLETRSYSFRYWGQGTQVTVSS
- Kd [1]: 430 nM
- binding result [2]: no binding
